In assay [1] the target is Human EphA2 (human) (UniProt P29317). Nature of the assay: IHC/IF on frozen human tumor tissue: STS.
Assay [2] has the same target. Nature of the assay: IHC/IF on frozen human tumor tissue: NSCLC-Adeno.
For assay [3] the target is unchanged. Nature of the assay: IHC/IF on frozen human tumor tissue: ER+ BRC.
Assay [4] shares this target. As to the kind of experiment: IHC/IF on frozen human tumor tissue: URO.
The target is the same in assay [5]. As to the kind of experiment: IHC/IF on frozen human tumor tissue: TNBC.
For assay [6] the target is unchanged. Nature of the assay: IHC/IF on frozen human tumor tissue: UCEC-endometrioid.
For assay [7] the target is unchanged. Nature of the assay: IHC/IF on frozen human tumor tissue: Her2+ BRC.
For assay [8] the target is unchanged. As to the kind of experiment: IHC/IF on frozen human tumor tissue: OVA.
Assay [9] has the same target. Nature of the assay: IHC/IF on frozen human tumor tissue: CRC.
Assay [10] shares this target. As to the kind of experiment: IHC/IF on frozen human tumor tissue: RCC-clear cell.
Assay [11] shares this target. As to the kind of experiment: IHC/IF on frozen human tumor tissue: MELA.
The target is the same in assay [12]. As to the kind of experiment: IHC/IF on frozen human tumor tissue: PANC.
Assay [13] shares this target. Nature of the assay: IHC/IF on frozen human tumor tissue: NSCLC-SQ.
Assay [14] has the same target. As to the kind of experiment: IHC/IF on frozen human tumor tissue: PROC.
The target is the same in assay [15]. Nature of the assay: IHC/IF on frozen human tumor tissue: UCEC-papillary.
Assay [16] shares this target. Nature of the assay: IHC/IF on frozen human tumor tissue: ESO.
The target is the same in assay [17]. Nature of the assay: IHC/IF on frozen human tumor tissue: ANC.
Assay [18] shares this target. Nature of the assay: IHC/IF on frozen human tumor tissue: HNC.
Assay [19] has the same target. As to the kind of experiment: IHC/IF on frozen human tumor tissue: RCC-papillary.
The target is the same in assay [20]. As to the kind of experiment: IHC/IF on frozen human tumor tissue: UCEC-clear cell.
The target is the same in assay [21]. As to the kind of experiment: IHC/IF on frozen human tumor tissue: GAC.
The target in assay [22] is Human EphA2 (ephrin receptor A2), native, in human tumor tissue (human) (UniProt P29317). As to the kind of experiment: tissue staining of human cancer samples, 3 ug/ml.
Assay [23] has the same target. As to the kind of experiment: tissue staining of human cancer samples, 30 ug/ml (the box on the sheet prints AB-010017 twice).
For assay [24] the target is unchanged. As to the kind of experiment: tissue staining of human cancer samples, 30 ug/ml.

In the case of 6997S (around Arg907) (antibody), the IHC score with Human EphA2 (human) [1], with Human EphA2 (human) [2], in the assay with Human EphA2 (human) [3], with Human EphA2 (human) [4], with Human EphA2 (human) [5] and with Human EphA2 (human) [6] was 1 throughout. Besides, the IHC score with Human EphA2 (human) [7] was determined as 1; with Human EphA2 (human) [8], 1; in the assay with Human EphA2 (human) [9], 1; with Human EphA2 (human) [10], 1; in the assay with Human EphA2 (human) [11], 2; with Human EphA2 (human) [12], 1. The IHC score with Human EphA2 (human) [13] was determined as 1; in the assay with Human EphA2 (human) [14], 1; in the assay with Human EphA2 (human) [15], 2; with Human EphA2 (human) [16], 2; in the assay with Human EphA2 (human) [17], 2; with Human EphA2 (human) [18], 1. Also, the IHC score with Human EphA2 (human) [19] came out at 1; in the assay with Human EphA2 (human) [20], 2; with Human EphA2 (human) [21], 1.

In the case of “AB-010016 (based on Medi-547; mouse IgG2a format) (antibody)”, in [22], the Reactive (% of samples), Bladder Urothelial Carcinoma is 33%; the Reactive (% of samples), Breast Cancer is 0%; the Reactive (% of samples), Cervical Squamous Cell Carcinoma is 0%; the Reactive (% of samples), Colorectal Adenocarcinoma is 10%. In [22], this substance showed a Reactive (% of samples), Head & Neck Squamous Cell Carcinoma of 0%; a Reactive (% of samples), Liver Hepatocellular Cell Carcinoma of 7%; a Reactive (% of samples), Melanoma of 0%; a Reactive (% of samples), Non-Small Cell Lung Cancer of 5%. Besides, in [22], the Reactive (% of samples), Ovarian Cancer came to 0%; the Reactive (% of samples), Renal Cancer was 0%; the Reactive (% of samples), Soft Tissue Sarcoma came to 0%; the Reactive (% of samples), Stomach Adenocarcinoma worked out at 0%. In assay [22], this substance showed a Reactive (% of samples), Testicular Cancer of 0%; a Reactive (% of samples), Thyroid Cancer of 0%; a Reactive (% of samples), Uterine Cancer of 0%. In assay [23], the Reactive (% of samples), Bladder Cancer (Urothelial) was 50%; the Reactive (% of samples), Breast Cancer stood at 47%; the Reactive (% of samples), Cervical Cancer (Squamous) stood at 40%; the Reactive (% of samples), Colorectal Cancer (Adenocarcinoma) is 40%. In addition, in assay [23], the Reactive (% of samples), Esophageal Cancer (Squamous) was found to be 27%; the Reactive (% of samples), Liver Cancer (HCC) was 80%; the Reactive (% of samples), Melanoma worked out at 29%; the Reactive (% of samples), Non-Small Cell Lung Cancer is 26%. In addition, in assay [23], the Reactive (% of samples), Ovarian Cancer turned out to be 53%; the Reactive (% of samples), Renal Cancer came out at 0%; the Reactive (% of samples), Soft Tissue Sarcoma turned out to be 9%; the Reactive (% of samples), Stomach Cancer (Adenocarcinoma) was determined as 50%. In [23], this substance showed a Reactive (% of samples), Testicular Cancer of 28%; a Reactive (% of samples), Thyroid Cancer of 44%; a Reactive (% of samples), Uterine Cancer of 21%.

Turning to “AB-010017 (based on MM-310; mouse IgG2a format) (antibody)”, in [24], the Reactive (% of samples), Bladder Cancer (Urothelial) was determined as 38%; the Reactive (% of samples), Breast Cancer amounted to 8%; the Reactive (% of samples), Cervical Cancer (Squamous) amounted to 36%; the Reactive (% of samples), Colorectal Cancer (Adenocarcinoma) is 10%. In addition, in [24], the Reactive (% of samples), Esophageal Cancer (Squamous) turned out to be 13%; the Reactive (% of samples), Liver Cancer (HCC) amounted to 43%; the Reactive (% of samples), Melanoma stood at 7%; the Reactive (% of samples), Non-Small Cell Lung Cancer came to 5%. In [24], this substance yielded a Reactive (% of samples), Ovarian Cancer of 47%; a Reactive (% of samples), Renal Cancer of 12%; a Reactive (% of samples), Soft Tissue Sarcoma of 3%; a Reactive (% of samples), Stomach Cancer (Adenocarcinoma) of 25%. Besides, in assay [24], the Reactive (% of samples), Testicular Cancer was 0%; the Reactive (% of samples), Thyroid Cancer is 0%; the Reactive (% of samples), Uterine Cancer was found to be 7%. Further, in [22], the Reactive (% of samples), Bladder Urothelial Carcinoma came out at 50%; the Reactive (% of samples), Breast Cancer was 0%; the Reactive (% of samples), Cervical Squamous Cell Carcinoma was 27%; the Reactive (% of samples), Head & Neck Squamous Cell Carcinoma was found to be 38%. In assay [22], this substance displayed a Reactive (% of samples), Liver Hepatocellular Cell Carcinoma of 0%; a Reactive (% of samples), Non-Small Cell Lung Cancer of 11%; a Reactive (% of samples), Ovarian Cancer of 6%; a Reactive (% of samples), Renal Cancer of 0%. In assay [22], this substance came in with a Reactive (% of samples), Soft Tissue Sarcoma of 3%; a Reactive (% of samples), Stomach Adenocarcinoma of 25%; a Reactive (% of samples), Testicular Cancer of 0%; a Reactive (% of samples), Thyroid Cancer of 8%.

As to Ab73254 (extracellular) (antibody), the IHC score with Human EphA2 (human) [1] was 1; in the assay with Human EphA2 (human) [2], 2; in the assay with Human EphA2 (human) [3], 1; with Human EphA2 (human) [4], 1; in the assay with Human EphA2 (human) [5], 1; with Human EphA2 (human) [6], 1. Further, the IHC score with Human EphA2 (human) [7] amounted to 1; in the assay with Human EphA2 (human) [8], 1; with Human EphA2 (human) [9], 1; in the assay with Human EphA2 (human) [10], 1; in the assay with Human EphA2 (human) [11], 2; with Human EphA2 (human) [12], 1. The IHC score in the assay with Human EphA2 (human) [13] was found to be 2; with Human EphA2 (human) [14], 1; with Human EphA2 (human) [15], 1; in the assay with Human EphA2 (human) [16] it was 1; with Human EphA2 (human) [17], 1; with Human EphA2 (human) [18], 1. Further, the IHC score in the assay with Human EphA2 (human) [19] came to 1; with Human EphA2 (human) [20], 2; with Human EphA2 (human) [21], 1.

In the case of LS-B1794-50 (AA 450-500) (antibody), the IHC score turned out to be 1 with Human EphA2 (human) [1]; 2 with Human EphA2 (human) [2]; 1 in the assay with Human EphA2 (human) [3]; 1 with Human EphA2 (human) [4]; 1 with Human EphA2 (human) [5]; 1 with Human EphA2 (human) [6]. The IHC score was determined as 1 with Human EphA2 (human) [7]; 1 with Human EphA2 (human) [8]; 1 with Human EphA2 (human) [9]; 1 in the assay with Human EphA2 (human) [10]; 2 in the assay with Human EphA2 (human) [11]; 1 in the assay with Human EphA2 (human) [12]. Also, the IHC score in the assay with Human EphA2 (human) [13] is 1; with Human EphA2 (human) [14], 1; with Human EphA2 (human) [15], 2; with Human EphA2 (human) [16] it was 1; with Human EphA2 (human) [17] it was 1; in the assay with Human EphA2 (human) [18], 1. For the same substance, the IHC score was found to be 2 with Human EphA2 (human) [19], 2 in the assay with Human EphA2 (human) [20] and 1 in the assay with Human EphA2 (human) [21].

Consider “LS-C36249-100 (extracellular) (antibody)”, for which the IHC score with Human EphA2 (human) [1] was found to be 2; in the assay with Human EphA2 (human) [2], 2; with Human EphA2 (human) [3] it was 1; with Human EphA2 (human) [4] it was 1; in the assay with Human EphA2 (human) [5] it was 1; with Human EphA2 (human) [6], 2. The IHC score with Human EphA2 (human) [7] stood at 2; in the assay with Human EphA2 (human) [8], 2; with Human EphA2 (human) [9], 1; with Human EphA2 (human) [10] it was 1; with Human EphA2 (human) [11] it was 3; in the assay with Human EphA2 (human) [12] it was 1. Further, the IHC score was determined as 2 in the assay with Human EphA2 (human) [13]; 1 with Human EphA2 (human) [14]; 3 with Human EphA2 (human) [15]; 2 with Human EphA2 (human) [16]; 2 with Human EphA2 (human) [17]; 2 in the assay with Human EphA2 (human) [18]. Besides, the values for the IHC score with Human EphA2 (human) [19], in the assay with Human EphA2 (human) [20] and in the assay with Human EphA2 (human) [21] were 1, 2 and 1, respectively.

As to LS-C100255-400 (AA 30-60) (antibody), the IHC score with Human EphA2 (human) [1], with Human EphA2 (human) [2], with Human EphA2 (human) [3], with Human EphA2 (human) [4], in the assay with Human EphA2 (human) [5] and in the assay with Human EphA2 (human) [6] was 1 each time. Besides, the IHC score was 1 with Human EphA2 (human) [7]; 1 with Human EphA2 (human) [8]; 1 with Human EphA2 (human) [9]; 1 in the assay with Human EphA2 (human) [10]; 2 with Human EphA2 (human) [11]; 1 with Human EphA2 (human) [12]. Further, the IHC score came out at 1 in the assay with Human EphA2 (human) [13]; 1 with Human EphA2 (human) [14]; 2 with Human EphA2 (human) [15]; 1 with Human EphA2 (human) [16]; 1 with Human EphA2 (human) [17]; 1 with Human EphA2 (human) [18]. Moreover, the IHC score in the assay with Human EphA2 (human) [19] was 1; with Human EphA2 (human) [20], 2; with Human EphA2 (human) [21], 1.

The record behind these values is US20250276077A1, “EPHA2 ANTIBODIES” (Immunome, Inc., priority 2022, published 2025).
